B1: Kel2-DBD (natural protein, S. cerevisiae, UniProt P50090 1-882, looked up)
chain: MVPFKLTNKVPTDTGPSLISAQSVPRPIVFMDNRNNTRIVTPTLPPNQHRGISGASTALPWSPESKNTGKYIWNRVKLKNSPFPRYRHSSSFIVTNDNRIFVTGGLHDQSVYGDVWQIAANADGTSFTSKRIDIDQNTPPPRVGHASTICGNAYVVFGGDTHKLNKNGLLDDDLYLFNINSYKWTIPQPIGRRPLGRYGHKISIIASNPMQTKLYLFGGQVDETYFNDLVVFDLSSFRRPNSHWEFLEPVGDLPPPLTNHTMVAYDNKLWVFGGETPKTISNDTYRYDPAQSEWSKVKTTGEKPPPIQEHASVVYKHLMCVLGGKDTHNAYSNDVYFLNLLSLKWYKLPRMKEGIPQERSGHSLTLMKNEKLLIMGGDKTDYASPNIHDLQTSETDQGEGTLLYTLDLSSLNELCPGIMCESLHAGESFSNSLSGGFTPSKSTESENQEIINILTPRLPDSKVLSYNDIDEGAGSYSSALDDKAFERKSDREEKKPQSSKVDSSINKESPGTGIKVSKKNFPVLRGLTVDSEEYGSSSYKDTSCQKGIPKNLFDDLNLNLQTLRLEAQQKELETARHISQLEKEVQRLMVIKEASKDSNFQTARLKNLEIQKTFLESRINDLKNLLMVKLSQASKLCDQITIQNNGLKTCSEHVTIKRDIIDLENKCDVLKRQNEILVNNMQKITPELHTYLNESSCYLGKLLKSYPTSARPPSSEKDNQIYEKDSLNKIEKVINEMHETVRAKEKLHLETQKLNDERDSLRANLLDNNNKLDALRKLSDGSSKSMDLTKKAIHLSQSELEKYRKNNDDLQKEIDRIKTEQAEQDDKQEQRGAITHGNFDAFHRMKINNLKAELYMSKENRDSLKDELLALKKKLYTLEQKK
B2: Kel1-AD (natural protein, S. cerevisiae, UniProt P38853 1-1164, looked up)
chain: MAGFSFAKKFTHKKHGKTPSDASISDQSREASLSTPPNEKFFTKQETPQKGRQFSQGYHSNVNKTSSPPMFARKQVSESRIQPSAVPPQQRNVSGPSTTLHKQLSKQREYTVWNRIKLQNSPFPRYRHVASAYVTDKNQIYVIGGLHDQSVYGDTWILTAFDNATRFSTTTIDISEATPPPRVGHAAVLCGNAFVVFGGDTHKVNKEGLMDDDIYLLNINSYKWTVPAPVGPRPLGRYGHKISIIATTQMKTKLYVFGGQFDDTYFNDLAVYDLSSFRRPDSHWEFLKPRTFTPPPITNFTMISYDSKLWVFGGDTLQGLVNDVFMYDPAINDWFIIDTTGEKPPPVQEHATVVYNDLMCVVGGKDEHDAYLNSVYFLNLKSRKWFKLPVFTAGIPQGRSGHSLTLLKNDKILIMGGDKFDYARVEEYDLHTSDIDMQRGTIVYTLDLARIKDLCPGVMDVPTDTPTPRNGNLDLATPVTPTSHQTKNMNVPISAAPLASAPSPAPKDFSDADRLNREVHNRNVSTEHQNQSHPVNSESHLIAEPNILTPYVPSESSQTPVMKITSNKPFDTPTIQKEPDLSETMDPTVGNQRIPSSIYGDNLTPANQIKNNSPILETLPSNEIKTPQNGNIEEIKHLPDADEKIDSTTTFDQEINGDKLGTSSMSKVEEDGNVADEDDEIGVAQMASSPSKDQFKIKHYNESSELSQNNTEIDKLSEPVDITIKKSDTAGHDSANHVIDASDEKNVSPMGDVPTDTKNEEASVPINRDATTEVVDRALFEKLRSELQSLKELTHEKALEAGAHIKELETELWQLKSQKNSGTTKEIDELDSVRLQSKCEILEADNHSLEDKVNELEELVNSKFLDIENLNEVIQFQNEKIKSLELEPNYKEKLEELQIEHENLSRENERLKNESKQHNEDIINNVANYSSQLGSLISHWKENRANSSFLESSSSLISVSDENGEKTVGEPYGDQSRHHRVVINKLTNRLDDLLERSQELTISKEKLSSEYHALKMEHSSLSQDVLVKENEIKKIQNDYKESISSMDSASKALMVSQRELEKYKSLNKKLIDELDELKFKNGVCSENFENGLRSTEESSNNVKNSNSIRENQFNIKINDLKAELFITNQERDDLKSEVLELKKRLLNLENNTKQVNEDADSDLL

The data set “two-hybrid” concerns the molecule itself. Description: two-hybrid.
The data set “Kel2-DBD” has as its target B1. Description: two-hybrid.

Some results are limits rather than exact numbers.

With B1, the “interaction relative to that of Kel1p-AD with Kel2-DBD” value in the data set “two-hybrid” is about 10%.

As to B2, the “fold increase of β-galactosidase activity against Kel1-AD or Kel2-DBD alone” value with Kel2-DBD is over 100 fold.

These data come from paper PMC2132843 (The Journal of Cell Biology, 1998).
